Data on one substance can be found in paper PMC12598616, “Design and optimization of caspase-1-responsive fluorescent probes for pyroptosis imaging and anti-pyroptosis drug screening” (Chemical Science, 2025).

For this data set, the target named is T1, caspase-1 (Homo sapiens, UniProt P29466).
T1 sequence (P29466 120-297 limits assumed): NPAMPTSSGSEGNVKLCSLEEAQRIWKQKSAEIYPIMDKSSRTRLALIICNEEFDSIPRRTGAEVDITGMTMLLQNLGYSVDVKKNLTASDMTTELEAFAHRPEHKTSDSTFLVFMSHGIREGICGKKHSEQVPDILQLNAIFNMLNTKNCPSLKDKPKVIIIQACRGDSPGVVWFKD
T1 sequence (P29466 317-404 limits assumed): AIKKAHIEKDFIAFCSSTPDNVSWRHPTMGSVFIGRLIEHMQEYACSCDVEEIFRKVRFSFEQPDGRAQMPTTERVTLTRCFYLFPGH
The data set can be described thus: Enzyme kinetic studies with caspase-1. Format: biochemical. The settings on record: probe 0.5–4 μM, Cas-1 2 U/mL, HEPES assay buffer, 37 °C, read every 2 min, λex 510 nm/λem 585 nm, Lineweaver-Burk plot; read-out: Michaelis constant (KM). Here is the method: The spectral and chemical properties of all probes were then evaluated. Upon interaction with Cas-1, the specific peptide of the probes is cleaved, leading to the disruption of the FRET process in the system and the recovery of donor fluorescence (Fig. 2a). Prior to fluorescence detection, the UV-vis absorption spectra of the probes were acquired. […] Subsequently, the sensitivity of the probes towards Cas-1 was measured in HEPES buffer (50 mM HEPES, 50 mM NaCl, 0.1% chaps, 5% glycerol, 10 mM DTT, 10 mM EDTA). […] The response differences among the probes were more intuitively observed by analyzing the standard curves of fluorescence intensity at 585 nm against the concentration of Cas-1 (Fig. 2b). […] The reaction kinetics of the probes were also measured by monitoring the fluorescence intensity of FPy1, YPy1 and WPy1 (0.5–4 μM) following incubation with Cas-1 (2 U mL^−1) (Fig. S3a–f). […] The reaction time of the probes was also investigated by monitoring the fluorescence spectra of the probes (5 μM) incubated with Cas-1 (2 U mL^−1) at various time intervals (Fig. S4a–c). […] Finally, the selectivity of the probes was evaluated. A series of potential biologically relevant interferents were selected, and the results illustrated that these interferents had no effect on the probes (Fig. S5a–c). […]

Turning to “–FLTDG– [FPy1, RhoB donor, hNR quencher]”, the Km came to 4.42 µM.
